Experimental data: patent publication US20050282743A1, “Molecular interactions in cells” (Arbor Vita Corporation, priority 2001, published 2005)
Ends that are not written are not given here. * marks the point of attachment. Biotin = O=C1N[C@H]2[C@H](CS[C@H]2CCCCC(=O)*)N1

Experiments:
Type in all cases: binding
PSD-95 = biological target: T1, PSD-95 (Homo sapiens, UniProt P78352); experiment: G assay competition of short unlabeled peptides with biotinylated 20-mers (Example 6, TABLE 6); details: competitor 50 uM, 100 = no competitor
T1 construct: protein spans from amino terminal end of first PDZ domain to carboxy-terminal end of third PDZ domain in frame with GST in vector; made in house; host or cells: E. coli DH5alpha
T1 sequence (P78352 58-398 limits assumed): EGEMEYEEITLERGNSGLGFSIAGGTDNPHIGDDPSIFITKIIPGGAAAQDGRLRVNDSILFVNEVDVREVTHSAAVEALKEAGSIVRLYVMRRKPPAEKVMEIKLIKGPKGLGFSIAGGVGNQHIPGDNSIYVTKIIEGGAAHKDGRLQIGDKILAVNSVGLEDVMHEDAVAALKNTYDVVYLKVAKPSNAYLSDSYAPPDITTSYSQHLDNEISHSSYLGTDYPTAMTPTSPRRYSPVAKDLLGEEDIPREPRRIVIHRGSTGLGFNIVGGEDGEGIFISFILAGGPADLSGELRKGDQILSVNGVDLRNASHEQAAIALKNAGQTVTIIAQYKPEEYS
Description: (§1) The potential for unlabeled 8-mers and 3-mers to compete for binding with biotinylated 20-mers to PDZ domains was examined. Interactions between a PDZ domain and two or more biotinylated peptides mimicking PDZ ligands identified through the ‘G Assay’ were used as model interactions. Short, 3 or 8 amino acid, unlabeled peptides were synthesized by standard techniques and used at variable concentrations with a set concentration of biotinylated 20-mer. Ability of both the 3-mer and 8-mer to inhibit longer peptide binding was observed, making PDZ:PL interactions an attractive target for design of small molecule or peptide therapeutics.
(§2) Peptides representing the C-terminal 3, 8 or 20 amino acids of a PDZ ligand were synthesized by standard FMOC chemistry and biotinylated if not used as an unlabeled competitor. Peptides three amino acids in length were acetylated to more properly mimic the peptide bond without introducing an amino-terminal charged group. Peptides were purified by reverse phase high performance liquid chromatography (HPLC) using a Vydac 218TP C18 Reversed Phase column having the dimensions of 10*25 mm, 5 um. Approximately 40 mg of peptide was dissolved in 2.0 ml of and aqueous solution of 49.9% acetonitrile and 0.1% Tri-Fluoro acetic acid (TFA). This solution was then injected into the HPLC machine through a […] syringe filter (Millipore). Buffers used to get a good separation are (A) distilled water with 0.1% TFA and (B) 0.1% TFA with Acetonitrile.
(§3) The G Assay was performed as described in EXAMPLE 3 with the exception that when a short competitor was used, 30 ul of competitor peptide (at twice the final concentration) was mixed with 30 ul biotinylated 20-mer (at twice the final concentration) and then added to the well.
(§4) PSD-95 and DLG-1 were incubated in the wells at 5 ug/ml as described in the G Assay protocol. Biotinylated 20-mer peptides used were 20 uM CLASP-2, 20 uM CD46, 10 uM CD95, and 10 uM KV1.3 (find sequences of peptides in TABLE 8). Competitors (unlabeled, short peptides) tested against each of the biotinylated peptides were 50 uM 8-mer of CD95, 100 uM 8-mer of CD46, 50 uM 8-mer of CLASP-2, and 1 mM and 500 uM acetylated 3-mer of CLASP-2. To deduce sequences, refer to TABLE 8. All absorbances were read at 450 nm after stopping TMB detection reaction at 30 min. Results were normalized in each group by dividing its A450 by the A450 of the PDZ/peptide binding in the absence of competitor and converting to percentage by multiplying by 100.

DLG-1 = biological target: T2, DLG-1 (Homo sapiens, UniProt Q12959); experiment: as above; details: competitor 50 uM, 100 = no competitor
T2 construct: protein spans from amino terminal end of first PDZ domain to carboxy-terminal end of third PDZ domain in frame with GST in vector; made in house; host or cells: E. coli DH5alpha
T2 sequence (Q12959 224-546 limits assumed): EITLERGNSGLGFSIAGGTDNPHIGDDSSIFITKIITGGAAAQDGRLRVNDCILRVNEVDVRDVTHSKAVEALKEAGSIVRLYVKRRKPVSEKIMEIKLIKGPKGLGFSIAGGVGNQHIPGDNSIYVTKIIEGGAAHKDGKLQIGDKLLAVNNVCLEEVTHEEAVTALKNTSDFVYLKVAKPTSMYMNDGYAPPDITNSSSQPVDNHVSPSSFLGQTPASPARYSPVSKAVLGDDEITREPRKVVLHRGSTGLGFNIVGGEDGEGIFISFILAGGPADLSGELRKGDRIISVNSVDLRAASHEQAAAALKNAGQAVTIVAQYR
Description: as §1, §2, §3, §4

[1] = test system: PDZ protein (GST-PDZ fusion); experiment: G' assay (10 uM PL peptide), results of TABLE 7 and TABLE 12
Description: (§5) Each page of TABLE 7 and 12 includes seven columns. The columns in each table are numbered from left to right such that the left-most column in each table is column 1 and the right-most column in each table is column 7. Thus, the first column in each table is labeled “AVC ID”; this column simply lists an internal reference number used to refer to the carboxyl-terminal amino acids of the PL proteins listed in the second column. […] All PL peptides were biotinylated at the amino-terminus and the sequences of these PL peptides are presented in TABLE 8 (see end of specification).
(§6) This column provides the gene name for the PDZ portion of the GST-PDZ fusion that interacts with the PDZ-ligand to the left. For PDZ domain-containing proteins with multiple domains, the domain number is listed to the right of the PDZ (i.e., in column 5 labeled “PDZ Domain”), and indicates the PDZ domain number when numbered from the amino-terminus to the carboxy-terminus.
(§7) The third column labeled “Peptide Optimal Concentration” in the tables is a number reflective of the binding interaction between the PL protein and PDZ protein. […] The column labeled “Protein Optimal Concentration” refers to the protein concentration used to assay PL interaction (in ug/ml); a ‘0’ is indicative of 5 ug/ml protein concentration; any other value represents the concentration (in ug/ml) used to determine the dissociation constant for a given interaction.
(§8) Finally, the seventh column labeled “Classification” is another measure of the level of binding. In particular, it provides an absorbance value at 450 nm which indicates the amount of PL peptide bound to the PDZ protein. The following numerical values have the following meanings: ‘1’—A450 nm 0-1; ‘2’—A450 nm 1-2; ‘3’—A450 nm 2-3; ‘4’—A450 nm 3-4; ‘5’—A450 nm of 4 more than 2× repeated; ‘0’—A450 nm 0, i.e., not found to interact. Thus, higher numbers indicate stronger interactions.
(§9) For convenience, the assay conditions described in this section are referred to as the “G′ assay” and the “G″ assay,” with the specific conditions described in the preceding section on G assays being referred to as the “G^0 assay.” The “G′ assay” is identical to the “G^0 assay” except at step (2) the peptide concentration is 10 uM instead of 20 uM.

[2] = biological target: T3, PDZ protein (GST-PDZ fusion) (Homo sapiens, UniProt O14907); experiment: as above; details: PDZ TIP1, PDZ Domain 1
T3 construct: made in house; host or cells: E. coli (DH5alpha, BL21 or JM109)
T3 sequence (O14907 1-124): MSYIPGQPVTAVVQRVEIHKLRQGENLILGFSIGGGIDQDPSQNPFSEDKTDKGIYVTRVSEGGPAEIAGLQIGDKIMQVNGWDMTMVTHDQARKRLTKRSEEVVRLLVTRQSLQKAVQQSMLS
Description: as §5, §6, §7, §8, §9

[3] = biological target: T4, PDZ protein (GST-PDZ fusion) (Homo sapiens, UniProt Q9P202); experiment: as above; details: PDZ KIAA1526, PDZ Domain 1
T4 construct: made in house; host or cells: E. coli (DH5alpha, BL21 or JM109)
T4 sequence (Q9P202 1-907): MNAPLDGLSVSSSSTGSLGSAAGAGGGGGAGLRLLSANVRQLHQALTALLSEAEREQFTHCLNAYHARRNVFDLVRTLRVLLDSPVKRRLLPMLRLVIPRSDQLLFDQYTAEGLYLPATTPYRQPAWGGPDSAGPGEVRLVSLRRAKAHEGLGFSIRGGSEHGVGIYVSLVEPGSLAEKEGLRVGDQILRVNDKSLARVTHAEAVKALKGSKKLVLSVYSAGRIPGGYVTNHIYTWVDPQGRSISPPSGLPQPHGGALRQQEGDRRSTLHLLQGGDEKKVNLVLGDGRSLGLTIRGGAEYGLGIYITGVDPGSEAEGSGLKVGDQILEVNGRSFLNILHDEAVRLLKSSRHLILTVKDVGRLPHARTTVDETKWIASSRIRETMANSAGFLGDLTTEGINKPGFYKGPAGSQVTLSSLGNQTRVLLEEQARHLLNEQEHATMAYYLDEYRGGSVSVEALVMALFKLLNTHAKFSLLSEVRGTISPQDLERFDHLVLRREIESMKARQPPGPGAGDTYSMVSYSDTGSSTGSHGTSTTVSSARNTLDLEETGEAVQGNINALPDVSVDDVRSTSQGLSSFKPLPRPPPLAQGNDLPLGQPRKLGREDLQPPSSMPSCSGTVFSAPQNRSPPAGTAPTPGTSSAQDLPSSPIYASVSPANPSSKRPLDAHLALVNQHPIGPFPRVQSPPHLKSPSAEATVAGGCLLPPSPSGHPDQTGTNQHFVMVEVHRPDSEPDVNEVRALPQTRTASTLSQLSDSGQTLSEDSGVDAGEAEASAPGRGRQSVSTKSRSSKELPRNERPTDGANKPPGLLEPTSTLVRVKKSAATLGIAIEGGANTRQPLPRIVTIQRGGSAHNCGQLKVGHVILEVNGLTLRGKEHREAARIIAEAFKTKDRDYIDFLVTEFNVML
Description: as §5, §6, §7, §8, §9

[4] = biological target: T5, PDZ protein (GST-PDZ fusion) (Homo sapiens, UniProt Q6P0Q8); experiment: as above
T5 construct: made in house; host or cells: E. coli (DH5alpha, BL21 or JM109)
T5 sequence (Q6P0Q8 whole entry, the tested form may be a part): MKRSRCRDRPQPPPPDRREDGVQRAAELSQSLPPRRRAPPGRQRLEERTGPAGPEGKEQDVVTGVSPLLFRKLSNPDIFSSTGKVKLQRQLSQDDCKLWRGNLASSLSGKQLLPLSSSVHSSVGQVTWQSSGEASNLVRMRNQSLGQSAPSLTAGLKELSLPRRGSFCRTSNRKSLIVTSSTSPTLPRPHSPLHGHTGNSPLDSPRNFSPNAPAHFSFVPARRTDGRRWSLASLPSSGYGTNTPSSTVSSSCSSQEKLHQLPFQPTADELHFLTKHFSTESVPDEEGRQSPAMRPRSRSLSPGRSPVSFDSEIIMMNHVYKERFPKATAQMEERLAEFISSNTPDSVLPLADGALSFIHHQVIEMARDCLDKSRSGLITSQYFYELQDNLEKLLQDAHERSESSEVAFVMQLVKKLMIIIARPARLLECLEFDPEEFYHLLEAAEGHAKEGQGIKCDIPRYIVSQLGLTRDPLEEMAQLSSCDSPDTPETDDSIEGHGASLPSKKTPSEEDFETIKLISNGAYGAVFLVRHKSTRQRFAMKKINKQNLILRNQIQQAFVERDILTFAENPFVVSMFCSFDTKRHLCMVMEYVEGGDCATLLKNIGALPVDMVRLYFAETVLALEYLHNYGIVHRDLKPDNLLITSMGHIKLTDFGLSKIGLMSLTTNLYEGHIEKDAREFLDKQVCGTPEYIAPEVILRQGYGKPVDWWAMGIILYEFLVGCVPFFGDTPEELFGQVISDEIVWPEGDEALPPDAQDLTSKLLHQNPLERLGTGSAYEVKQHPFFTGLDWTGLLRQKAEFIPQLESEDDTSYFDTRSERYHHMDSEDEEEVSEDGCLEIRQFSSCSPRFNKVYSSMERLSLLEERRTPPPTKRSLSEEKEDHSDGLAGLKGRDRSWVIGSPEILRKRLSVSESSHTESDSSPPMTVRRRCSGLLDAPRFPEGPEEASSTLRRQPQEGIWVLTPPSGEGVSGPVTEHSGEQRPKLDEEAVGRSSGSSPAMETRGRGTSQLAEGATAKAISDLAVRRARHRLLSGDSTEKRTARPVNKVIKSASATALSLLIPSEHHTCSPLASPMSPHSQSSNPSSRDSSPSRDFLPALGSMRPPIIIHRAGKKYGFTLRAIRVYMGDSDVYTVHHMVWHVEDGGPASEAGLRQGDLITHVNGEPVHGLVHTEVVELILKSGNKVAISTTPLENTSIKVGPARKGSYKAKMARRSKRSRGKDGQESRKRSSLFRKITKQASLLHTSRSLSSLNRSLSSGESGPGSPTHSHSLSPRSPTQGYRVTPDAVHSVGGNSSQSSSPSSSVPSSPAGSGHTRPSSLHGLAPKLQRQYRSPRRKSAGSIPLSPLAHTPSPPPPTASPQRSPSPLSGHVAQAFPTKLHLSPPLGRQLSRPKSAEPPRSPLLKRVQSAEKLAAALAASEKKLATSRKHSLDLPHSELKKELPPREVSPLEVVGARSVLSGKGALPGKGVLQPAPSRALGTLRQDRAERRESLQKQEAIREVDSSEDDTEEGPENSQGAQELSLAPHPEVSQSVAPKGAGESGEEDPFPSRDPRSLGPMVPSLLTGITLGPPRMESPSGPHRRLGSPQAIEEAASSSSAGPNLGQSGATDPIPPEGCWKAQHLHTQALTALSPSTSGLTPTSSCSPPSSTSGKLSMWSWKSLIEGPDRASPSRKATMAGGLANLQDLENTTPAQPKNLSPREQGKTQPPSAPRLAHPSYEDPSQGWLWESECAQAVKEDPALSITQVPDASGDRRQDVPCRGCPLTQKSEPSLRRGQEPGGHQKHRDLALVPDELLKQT
Description: as §5, §6, §7, §8, §9

[5] = biological target: T6, PDZ protein (GST-PDZ fusion) (Homo sapiens, UniProt Q13796); experiment: as above; details: PDZ hAPXL, PDZ Domain 1
T6 construct: made in house; host or cells: E. coli (DH5alpha, BL21 or JM109)
T6 sequence (Q13796 whole entry, the tested form may be a part): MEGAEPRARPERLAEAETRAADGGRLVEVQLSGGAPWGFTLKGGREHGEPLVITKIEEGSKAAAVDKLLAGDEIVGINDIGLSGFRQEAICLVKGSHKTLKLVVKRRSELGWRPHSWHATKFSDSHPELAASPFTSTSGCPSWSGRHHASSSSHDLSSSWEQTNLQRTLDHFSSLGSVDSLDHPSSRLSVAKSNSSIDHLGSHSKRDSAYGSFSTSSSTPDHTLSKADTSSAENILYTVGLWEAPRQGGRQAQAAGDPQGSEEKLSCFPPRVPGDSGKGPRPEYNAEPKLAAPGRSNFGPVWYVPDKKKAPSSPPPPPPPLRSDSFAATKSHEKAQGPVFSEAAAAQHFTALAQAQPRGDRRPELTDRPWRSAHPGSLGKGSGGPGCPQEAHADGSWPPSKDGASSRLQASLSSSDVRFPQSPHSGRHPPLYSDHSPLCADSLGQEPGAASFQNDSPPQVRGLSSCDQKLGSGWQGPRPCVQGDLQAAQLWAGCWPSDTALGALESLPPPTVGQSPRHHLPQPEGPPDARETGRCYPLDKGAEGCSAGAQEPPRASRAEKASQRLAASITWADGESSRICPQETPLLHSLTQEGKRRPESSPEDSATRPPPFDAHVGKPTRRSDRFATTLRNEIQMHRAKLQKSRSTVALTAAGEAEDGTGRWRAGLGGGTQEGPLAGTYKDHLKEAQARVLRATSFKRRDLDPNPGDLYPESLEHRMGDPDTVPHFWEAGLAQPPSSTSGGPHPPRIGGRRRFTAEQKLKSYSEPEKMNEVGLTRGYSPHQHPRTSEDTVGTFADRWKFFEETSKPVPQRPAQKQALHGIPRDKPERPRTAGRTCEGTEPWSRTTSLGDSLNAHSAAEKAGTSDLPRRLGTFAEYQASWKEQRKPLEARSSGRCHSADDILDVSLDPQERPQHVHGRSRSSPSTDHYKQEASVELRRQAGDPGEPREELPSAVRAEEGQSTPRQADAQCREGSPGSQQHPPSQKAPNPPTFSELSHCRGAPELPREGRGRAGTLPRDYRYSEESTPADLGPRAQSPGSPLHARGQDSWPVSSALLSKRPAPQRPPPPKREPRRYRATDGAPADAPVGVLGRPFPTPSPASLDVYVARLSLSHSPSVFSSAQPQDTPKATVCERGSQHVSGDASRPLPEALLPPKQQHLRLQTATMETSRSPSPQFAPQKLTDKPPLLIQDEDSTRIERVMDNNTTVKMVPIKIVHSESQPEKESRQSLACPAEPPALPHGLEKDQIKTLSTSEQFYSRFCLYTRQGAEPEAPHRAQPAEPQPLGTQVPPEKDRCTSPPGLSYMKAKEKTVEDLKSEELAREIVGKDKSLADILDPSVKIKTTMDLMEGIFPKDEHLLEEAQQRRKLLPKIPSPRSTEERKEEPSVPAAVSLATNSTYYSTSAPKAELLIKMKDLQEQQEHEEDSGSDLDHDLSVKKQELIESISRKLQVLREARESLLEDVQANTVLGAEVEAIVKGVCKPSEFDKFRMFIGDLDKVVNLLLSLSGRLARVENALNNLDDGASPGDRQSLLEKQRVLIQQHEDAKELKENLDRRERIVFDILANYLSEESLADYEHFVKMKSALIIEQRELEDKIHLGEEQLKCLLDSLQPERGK
Description: as §5, §6, §7, §8, §9

[6] = biotinylated 20-mer CLASP-2 20 uM

MTSSSSVV [CLASP-2 8-mer, unlabeled peptide of the C-terminal 8 amino acids of CLASP-2]
% binding (PSD-95; biotinylated 20-mer CD46 20 uM): 90%
% binding (PSD-95; biotinylated 20-mer CD95 10 uM): 80%
% binding (PSD-95; [6]): 85%
% binding (PSD-95; biotinylated 20-mer KV1.3 10 uM): 82%
% binding (DLG-1; biotinylated 20-mer CD46 20 uM): 105%
% binding (DLG-1; biotinylated 20-mer CD95 10 uM): 75%
% binding (DLG-1; [6]): 93%

SGGNRARQERLQRRRETQV (Biotin-SGGNRARQERLQRRRETQV) [HPV E6 #18]
Classification ([1]; PDZ BAI-1, PDZ Domain 2): 5 (A450 nm of 4 more than 2× repeated)
Classification [2]: 4 (A450 nm 3-4)

SSPTYRALLLQGPSQSSSEA (Biotin-SSPTYRALLLQGPSQSSSEA)
Classification [3]: 1 (A450 nm 0-1)

SEGGRPTRGPRLQGRRVTQV [HPV E6 52 (modified)]
Classification ([1]; PDZ BAI-1, PDZ Domain 2): 5 (A450 nm of 4 more than 2× repeated)
Classification [2]: 0 (A450 nm 0, i.e., not found to interact)

GTSDMKDLVGNIEQNEHSVI [Mannose Receptor]
Classification ([4]; PDZ KIAA807): 1 (A450 nm 0-1)
Classification ([4]; PDZ KIAA0807(S), PDZ Domain 1): 1 (A450 nm 0-1)
Classification [5]: 1 (A450 nm 0-1)
Classification ([1]; PDZ FLJ 00011, PDZ Domain 1): 1 (A450 nm 0-1)
